Patent publication US20140086935A1 (Bayer, published 2014)
Changes are numbered by the printed parent chain.

B1: MS-BW-40 (Fab, V domains shown)
VH: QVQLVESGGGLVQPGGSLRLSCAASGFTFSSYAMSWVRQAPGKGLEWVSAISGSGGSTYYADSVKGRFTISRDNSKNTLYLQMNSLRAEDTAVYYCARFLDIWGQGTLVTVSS
VL: DIALTQPASVSGSPGQSITISCTGTSSDVGGYNYVSWYQQHPGKAPKLMIYDVSNRPSGVSNRFSGSKSGNTASLTISGLQAEDEADYYCQSYDYQQFTVFGGGTKLTVLG
notes: Fab: heavy chain of MS-BW-3 with light chain of MS-BW-1; not tied by name
B2: MS-BW-47 (Fab, V domains shown)
VH: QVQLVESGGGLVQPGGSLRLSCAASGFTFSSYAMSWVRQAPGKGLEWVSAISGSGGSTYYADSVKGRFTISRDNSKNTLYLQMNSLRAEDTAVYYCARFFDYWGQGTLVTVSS
VL: B1 VL
notes: Fab: heavy chain of MS-BW-28 with light chain of MS-BW-1; not tied by name
B3: MS-BW-46 (Fab, V domains shown)
VH: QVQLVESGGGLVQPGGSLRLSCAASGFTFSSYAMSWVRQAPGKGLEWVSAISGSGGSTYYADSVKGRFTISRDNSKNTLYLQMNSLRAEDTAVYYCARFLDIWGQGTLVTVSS
VL: B1 VL with Y95F, Q96R, Q97R, T99S
notes: Fab: heavy chain of MS-BW-3 with light chain of MS-BW-28; not tied by name
B4: MS-BW-52 (Fab, V domains shown)
VH: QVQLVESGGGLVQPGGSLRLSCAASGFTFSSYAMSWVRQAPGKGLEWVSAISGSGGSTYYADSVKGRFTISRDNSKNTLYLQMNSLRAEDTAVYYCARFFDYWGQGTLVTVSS
VL: B1 VL with Y95F, Q96V, Q97R, T99M
notes: Fab: heavy chain of MS-BW-28 with light chain of MS-BW-26; not tied by name
B5: MS-BW-45 (Fab, V domains shown)
VH: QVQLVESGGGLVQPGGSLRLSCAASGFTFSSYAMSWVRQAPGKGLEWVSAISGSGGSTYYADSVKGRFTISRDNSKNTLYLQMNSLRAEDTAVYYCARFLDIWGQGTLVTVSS
VL: B1 VL with Y95F, Q96Y, Q97K, T99N
notes: Fab: heavy chain of MS-BW-3 with light chain of MS-BW-27; not tied by name
B6: MS-BW-43 (Fab, V domains shown)
VH: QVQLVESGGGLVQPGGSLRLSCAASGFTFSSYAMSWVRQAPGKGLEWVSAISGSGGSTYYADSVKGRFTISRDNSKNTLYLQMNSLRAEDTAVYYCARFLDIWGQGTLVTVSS
VL: B1 VL with Y95F, Q96I, Q97N, F98V, T99I
notes: Fab: heavy chain of MS-BW-3 with light chain of MS-BW-25; not tied by name
B7: MS-BW-51 (Fab, V domains shown)
VH: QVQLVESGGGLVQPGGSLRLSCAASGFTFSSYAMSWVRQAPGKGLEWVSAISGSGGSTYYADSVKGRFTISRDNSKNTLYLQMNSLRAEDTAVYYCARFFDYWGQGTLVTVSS
VL: B1 VL with Y95F, Q96I, Q97N, F98V, T99I
notes: Fab: heavy chain of MS-BW-28 with light chain of MS-BW-25; not tied by name
B8: MS-BW-41 (Fab, V domains shown)
VH: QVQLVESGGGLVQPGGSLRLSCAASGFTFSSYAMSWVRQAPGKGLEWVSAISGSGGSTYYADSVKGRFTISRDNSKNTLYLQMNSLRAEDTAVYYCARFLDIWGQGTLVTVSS
VL: B1 VL with Y95F, Q96K, Q97T, F98Y, T99L
notes: Fab: heavy chain of MS-BW-3 with light chain of MS-BW-2; not tied by name
B9: MS-BW-49 (Fab, V domains shown)
VH: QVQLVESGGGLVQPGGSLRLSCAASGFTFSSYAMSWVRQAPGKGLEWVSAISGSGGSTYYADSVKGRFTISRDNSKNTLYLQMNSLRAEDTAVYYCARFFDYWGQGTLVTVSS
VL: B1 VL with Y95F, Q96K, Q97T, F98Y, T99L
notes: Fab: heavy chain of MS-BW-28 with light chain of MS-BW-2; not tied by name
B10: MS-BW-17 (Fab, V domains shown)
VH: QVQLVQSGAEVKKPGESLKISCKGSGYSFTSYWIGWVRQMPGKGLEWMGIIYPGDSDTRYSPSFQGQVTISADKSISTAYLQWSSLKASDTAMYYCARLTNYFDSIYYDHWGQGTLVTVSS
VL: DIALTQPASVSGSPGQSITISCTGTSSDVGGYNYVSWYQQHPGKAPKLMIYDVSNRPSGVSNRFSGSKSGNTASLTISGLQAEDEADYYCQSYDPSHPSKVFGGGTKLTVLG
notes: Fab, FLAG + Strep-tag II; not tied by name
B11: MS-BW-55 (Fab, V domains shown)
VH: QVQLVQSGAEVKKPGSSVKVSCKASGGTFSSYAISWVRQAPGQGLEWMGWINPNSGGTNYAQKFQGRVTMTRDTSISTAYMELSSLRSEDTAVYYCARITYIGYDFWGQGTLVTVSS
VL: B10 VL with Y93R, P95L, S96Y, H97Y, P98V, S99Y, K100Y
notes: as for B10
B12: MS-BW-32 (Fab, V domains shown)
VH: QVQLVQSGAEVKKPGSSVKVSCKASGGTFSSYAISWVRQAPGQGLEWMGGIIPIFGTANYAQKFQGRVTITADESTSTAYMELSSLRSEDTAVYYCARTKYVGSEDVWGQGTLVTVSS
VL: B10 VL with P95F, P98Y, S99F, K100F
notes: as for B10
B13: MS-BW-63 (Fab, V domains shown)
VH: QVQLVQSGAEVKKPGESLKISCKGSGYSFTSYWIGWVRQMPGKGLEWMGIIYPGDSDTRYSPSFQGQVTISADKSISTAYLQWSSLKASDTAMYYCARILTGHVLLFDYWGQGTLVTVSS
VL: DIALTQPASVSGSPGQSITISCTGTSSDVGGYNYVSWYQQHPGKAPKLMIYDVSNRPSGVSNRFSGSKSGNTASLTISGLQAEDEADYYCQSDNPYLVFGGGTKLTVLG
notes: as for B10
B14: MS-BW-31 (Fab, V domains shown)
VH: B13 VH with I99L, L100Y, T101A, G102D, H103A, V104D, L105I, L106Y
VL: DIALTQPASVSGSPGQSITISCTGTSSDVGGYNYVSWYQQHPGKAPKLMIYDVSNRPSGVSNRFSGSKSGNTASLTISGLQAEDEADYYCQSYDLSPRVFGGGTKLTVLG
notes: as for B10
B15: MS-BW-29 (Fab, V domains shown)
VH: B13 VH with I99H, L100D, T101F, G102D, H103G, V104S, L105I, L106F, F107M, Y109F
VL: B14 VL with L95V, S96T
notes: as for B10
B16: MS-BW-37 (Fab, V domains shown)
VH: B13 VH with I99L, L100F, T101A, H103L, V104E, L106Y
VL: B14 VL with S96R, P97N
notes: as for B10
B17: MS-BW-61 (Fab, V domains shown)
VH: B13 VH with L100I, T101G, G102D, H103Y, L105I, L106F, Y109V
VL: B1 VL with Y93F, Y95M, Q96I, Q97H, F98P, T99Y
notes: as for B10
B18: MS-BW-59 (Fab, V domains shown)
VH: B10 VH with T100R, N101V, Y102H, F103D, D104Y, S105A, I106M, Y108F, H110L
VL: B1 VL with Y95I, Q96M, Q97P, F98E, T99R
notes: as for B10
B19: MS-BW-57 (Fab, V domains shown)
VH: B13 VH with I99L, L100Y, T101P, G102E, H103D, V104L, L105I, L106Y
VL: B1 VL with Y93W, Y95V, Q97T, F98D, T99K
notes: as for B10
B20: MS-BW-60 (Fab, V domains shown)
VH: QVQLVQSGAEVKKPGESLKISCKGSGYSFTSYWIGWVRQMPGKGLEWMGIIYPGDSDTRYSPSFQGQVTISADKSISTAYLQWSSLKASDTAMYYCARFVSYNGSVPYFDYWGQGTLVTVSS
VL: B1 VL with Y93M, Y95F, Q96R, Q97L, F98M, T99H
notes: as for B10
B21: MS-BW-30 (Fab, V domains shown)
VH: QVQLVQSGAEVKKPGESLKISCKGSGYSFTSYWIGWVRQMPGKGLEWMGIIYPGDSDTRYSPSFQGQVTISADKSISTAYLQWSSLKASDTAMYYCARYAGHQYEFFFDFWGQGTLVTVSS
VL: DIELTQPPSVSVAPGQTARISCSGDALGDKYASWYQQKPGQAPVLVIYDDSDRPSGIPERFSGSNSGNTATLTISGTQAEDEADYYCQSRDPVGFPVFGGGTKLTVLG
notes: as for B10
B22: MS-BW-36 (Fab, V domains shown)
VH: QVQLVQSGAEVKKPGESLKISCKGSGYSFTSYWIGWVRQMPGKGLEWMGIIYPGDSDTRYSPSFQGQVTISADKSISTAYLQWSSLKASDTAMYYCARYRYPHMFDFWGQGTLVTVSS
VL: B21 VL with R90Y, P92L, V93R, G94Y, F95S, P96H
notes: as for B10
B23: MS-BW-56 (Fab, V domains shown)
VH: QVQLVQSGAEVKKPGSSVKVSCKASGGTFSSYAISWVRQAPGQGLEWMGGIIPIFGTANYAQKFQGRVTITADESTSTAYMELSSLRSEDTAVYYCARQEWYMDYWGQGTLVTVSS
VL: DIELTQPPSVSVAPGQTARISCSGDALGDKYASWYQQKPGQAPVLVIYDDSDRPSGIPERFSGSNSGNTATLTISGTQAEDEADYYCQSYDRSMWVFGGGTKLTVLG
notes: as for B10
B24: MS-BW-17-3 (Fab, V domains shown)
VH: B10 VH
VL: B10 VL with Y93F, D94T, P95V, H97P, P98G, S99A, K100D
notes: Fab from LCDR3 optimization of MS-BW-17
B25: MS-BW-17-2 (Fab, V domains shown)
VH: B10 VH
VL: B10 VL with S92A, Y93F, D94A, P95V, S96M, H97P, P98N, S99V, K100E
notes: as for B24
B26: MS-BW-54-1 (Fab, V domains shown)
VH: B21 VH with A100Y, H102F, Q103E, E105D, F106L, F107L, F110N
VL: B1 VL with V29L, D52A, V53G, S54N, S92A, Y95S, Q96S, Q97G, F98Y, T99P
notes: Fab from LCDR1, -2, -3 optimization of MS-BW-54

These binders were tested against T1, human TIMP-1 (human, UniProt P01033 24-207) (assay: cell-based or functional assay).

IC50 in human protease assay | Binder
> 100 nM | B1
> 100 nM | B2
4 nM | B3
9 nM | B4
9 nM | B5
> 100 nM | B6
7 nM | B7
29 nM | B8
> 100 nM | B9

These binders were tested against T2, rat TIMP-1 (rat, UniProt P30120 24-217) (assay: cell-based or functional assay).
T2 sequence (P30120 24-217 limits assumed): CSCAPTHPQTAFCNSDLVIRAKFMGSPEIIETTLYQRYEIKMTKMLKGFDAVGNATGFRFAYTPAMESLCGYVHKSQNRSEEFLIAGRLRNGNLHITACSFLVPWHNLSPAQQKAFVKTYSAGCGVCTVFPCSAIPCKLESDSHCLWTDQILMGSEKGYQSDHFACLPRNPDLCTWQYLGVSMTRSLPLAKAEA

IC50 in rat protease assay | Binder
11 nM | B10
~100 nM | B11
> 100 nM | B12
20 nM | B13
> 100 nM | B14
> 100 nM | B15
> 100 nM | B16
> 100 nM | B17
30 nM | B18
~60 nM | B19
> 100 nM | B20
> 100 nM | B21
~75 nM | B22
> 100 nM | B23

Target: T2, rat TIMP-1
Assay: cell-based or functional assay
Remark: another data set of the same source

IC50 in rat protease assay | Binder
11 nM | B10
3 nM | B24
1.1 nM | B25
3 nM | B26

These binders were tested against T1, human TIMP-1 (assay: SPR (BIAcore), TIMP-1 coupled to chip, monovalent Fab).
Procedure: (§1) For affinity determination, monomeric fractions of affinity and SEC purified Fab fragments or purified IgG1 molecules were used. All experiments were conducted in HBS buffer at a flow rate of 20 μl/min at 25° C. on a BIAcore™ instrument. Antigens in 100 mM sodium acetate pH 5.0 were coupled to a CM 5 sensor chip using standard EDC-NHS coupling chemistry. […] All sensograms were fitted globally using BIA evaluation software. For monovalent Fab fragments a monovalent fit (Langmuir binding) and for IgGs a bivalent fit was applied.

Kd | Binder
~49 nM | B1
~152 nM | B2
6 nM | B3
~11 nM | B4
8 nM | B5
~65 nM | B6
~7 nM | B7
~6 nM | B8
~21 nM | B9

The binders below were run against T2, rat TIMP-1 in the same assay as above.
Procedure: as §1

Kd | Binder
13 nM | B10
1.9 nM | B24
1.3 nM | B25
2 nM | B26

Target: T2, rat TIMP-1
Assay: as above
Remark: another data set of the same source
Procedure: as §1

Kd | Binder
13 nM | B10
~23 nM | B11
~92 nM | B12
~14 nM | B13
~13 nM | B14
~214 nM | B15
10 nM | B16
~51 nM | B17
~15 nM | B18
~39 nM | B19
~30 nM | B20
~36 nM | B21
~42 nM | B22
~170 nM | B23
